Data from PMC5149402 (Structure (London, England : 1993), 2016).

B2: full-length rat Cerebellin-1, wild type (hexamer) (natural protein, UniProt P63182 22-193, looked up)
chain: QNETEPIVLEGKCLVVCDSNPTSDPTGTALGISVRSGSAKVAFSAIRSTNHEPSEMSNRTMIIYFDQVLVNIGNNFDSERSTFIAPRKGIYSFNFHVVKVYNRQTIQVSLMLNGWPVISAFAGDQDVTREAASNGVLIQMEKGDRAYLKLERGNLMGGWKYSTFSGFLVFPL

Assays:
SEC = biological target: the molecule itself; experiment: SEC
[1] = biological target: rat Neurexin-1β (+SS4), residues S48 to P292 (β-unique N-terminal region plus LNS6) (rat, UniProt Q63373 48-292); experiment: ITC
non-reducing SDS-PAGE = biological target: the molecule itself; experiment: non-reducing SDS-PAGE
[2] = biological target: B2; experiment: ITC

rat Neurexin-1β (+SS4), residues S48 to P292 (β-unique N-terminal region plus LNS6), sequence (Q63373 48-292): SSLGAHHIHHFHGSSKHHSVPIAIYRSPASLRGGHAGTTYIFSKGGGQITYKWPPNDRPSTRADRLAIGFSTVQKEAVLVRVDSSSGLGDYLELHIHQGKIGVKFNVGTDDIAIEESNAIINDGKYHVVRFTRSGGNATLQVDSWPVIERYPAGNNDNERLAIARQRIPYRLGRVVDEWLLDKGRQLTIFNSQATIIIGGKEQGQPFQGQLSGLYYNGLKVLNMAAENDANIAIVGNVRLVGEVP

B1: rat Cerebellin-1 C34,38S double mutant (trimer) (natural protein, UniProt P63182 22-193, looked up)
chain: QNETEPIVLEGKSLVVSDSNPTSDPTGTALGISVRSGSAKVAFSAIRSTNHEPSEMSNRTMIIYFDQVLVNIGNNFDSERSTFIAPRKGIYSFNFHVVKVYNRQTIQVSLMLNGWPVISAFAGDQDVTREAASNGVLIQMEKGDRAYLKLERGNLMGGWKYSTFSGFLVFPL
SEC
  stoichiometry N: 3

## B2
[1]
  Kd: 47 nM
non-reducing SDS-PAGE
  stoichiometry N: 2

B3: rat Neurexin-1α (+SS4), domains LNS2 to LNS6 (domain or fragment)
chain: not shown
[2]
  Kd: 35 nM
  stoichiometry N: 0.912 ± 0.045
